Paper PMC7988105, “Canonical versus non-canonical transsynaptic signaling of neuroligin 3 tunes development of sociality in mice” (Nature Communications, 2021)

B1: mouse NLGN3 ECD (residues 35–684) with C-terminal His6 tag (domain or fragment, UniProt Q8BYM5 35-684, looked up)
chain: QAPAPTVNTHFGKLRGARVPLPSEILGPVDQYLGVPYAAPPIGEKRFLPPEPPPSWSGIRNATHFPPVCPQNIHTAVPEVMLPVWFTANLDIVATYIQEPNEDCLYLNVYVPTEDGSGAKKQGEDLADNDGDEDEDIRDSGAKPVMVYIHGGSYMEGTGNMIDGSVLASYGNVIVITLNYRVGVLGFLSTGDQAAKGNYGLLDQIQALRWVSENIAFFGGDPRRITVFGSGIGASCVSLLTLSHHSEGLFQRAIIQSGSALSSWAVNYQPVKYTSLLADKVGCNVLDTVDMVDCLRQKSAKELVEQDIQPARYHVAFGPVIDGDVIPDDPEILMEQGEFLNYDIMLGVNQGEGLKFVEGVVDPEDGVSGTDFDYSVSNFVDNLYGYPEGKDTLRETIKFMYTDWADRDNPETRRKTLVALFTDHQWVEPSVVTADLHARYGSPTYFYAFYHHCQSLMKPAWSDAAHGDEVPYVFGVPMVGPTDLFPCNFSKNDVMLSAVVMTYWTNFAKTGDPNKPVPQDTKFIHTKANRFEEVAWSKYNPRDQLYLHIGLKPRVRDHYRATKVAFWKHLVPHLYNLHDMFHYTSTTTKVPPPDTTHSSHITRRPNGKTWSTKRPAISPAYSNENAPGSWNGDQDAGPLLVENPRDYSTE
notes: mouse neuroligin 3, NLGN3A isoform, extracellular domain; Dimer by SEC-MALS and in both crystals; also called apo-NLGN3 ECD; wild-type NLGN3; not shown: His6, C-terminal, kept

Tests used:
[1] = target: the molecule itself; assay: SEC-MALS; NLGN3 ECD wild-type at 1.5 g/L or R/C mutant at 1.1 g/L on ENrich SEC 650, 20 mM Tris-HCl pH 7.5, 150 mM NaCl
[2] = target: T1, NLGN3 ECD MF/IS mutant (M614I F615S) with His6 tag (mouse, UniProt Q8BYM5 35-684, M614I | F615S); assay: ITC; NLGN3 ECD (20 µM) in the cell, NRXN1β (200 µM) injected; 20 mM Tris-HCl pH 8.0, 150 mM NaCl, 1 mM CaCl2, 25 °C; one-site model; conditions: both partners purified
T1 construct: mouse neuroligin 3, NLGN3A isoform, extracellular domain (gene for residues 1–684 expressed and secreted), mutated; also called NLGN3-MF/IS; not shown: His6, C-terminal, kept

[3] = target: B1; assay: as above; conditions: both partners purified

Row | Kd [2] | Kd [3] | Binder | stoichiometry N [1]
1 | – | – | B1 | 2
2 | 2.3 µM | 1.8 µM | NRXN1β (lacking SS4) used for ITC (domain or fragment) not shown | –
